Reference: article PMC4428439, “Anti-adaptors use distinct modes of binding to inhibit the RssB-dependent turnover of RpoS (σ^S) by ClpXP” (Frontiers in Molecular Biosciences, 2015)

B2: RssB, full-length, untagged, purified (natural protein, E. coli, UniProt P0AEV1 1-337, looked up)
chain: MTQPLVGKQILIVEDEQVFRSLLDSWFSSLGATTVLAADGVDALELLGGFTPDLMICDIAMPRMNGLKLLEHIRNRGDQTPVLVISATENMADIAKALRLGVEDVLLKPVKDLNRLREMVFACLYPSMFNSRVEEEERLFRDWDAMVDNPAAAAKLLQELQPPVQQVISHCRVNYRQLVAADKPGLVLDIAALSENDLAFYCLDVTRAGHNGVLAALLLRALFNGLLQEQLAHQNQRLPELGALLKQVNHLLRQANLPGQFPLLVGYYHRELKNLILVSAGLNATLNTGEHQVQISNGVPLGTLGNAYLNQLSQRCDAWQCQIWGTGGRLRLMLSAE
notes: RssB (SprE), adaptor protein of ClpXP, E. coli; residues 1-337 by the printed domain limits; Monomeric and dimeric RssB were separated by preparative SEC; degradation assays used monomeric RssB; also called SprE; full-length RssB; source: E. coli, Ub-fusion system, purified (IMAC, preparative SEC)

What was measured:
[1] = target: the molecule itself; assay: SEC; Superdex 75; 5 nmol of IraD, RssBN or the IraD-RssBN complex; chilled GF buffer (20 mM Tris-HCl pH 7.5, 10 mM MgCl2, 0.1 mM EDTA, 1 mM DTT, 140 mM NaCl, 5% glycerol, 0.005% Triton X-100); fractions on SDS-PAGE, CBB
[2] = target: B2; assay: pull-down; purified His10-tagged IraD immobilised on Ni-NTA agarose beads; purified untagged RssB, RssBN or RssBC added; washed, eluted with imidazole; SDS-PAGE, CBB; settings: both partners purified
[3] = target: the molecule itself; assay: SEC; preparative grade SEC in the purification of untagged RssB, separating monomeric and dimeric RssB
[4] = target: T1, RssBC, C-terminal domain of RssB (residues 131-337), untagged, purified (E. coli, UniProt P0AEV1 131-337); assay: pull-down; purified IraP immobilised on Ni-NTA agarose beads via a C-terminal His10-tag; purified RssB, RssBN or RssBC added; washed, eluted with imidazole; immunoblotting; settings: both partners purified
T1 construct: RssB, E. coli, C-terminal effector domain, residues 131-337; also called C-terminal effector domain of RssB; source: E. coli, Ub-fusion system, purified (IMAC, SEC)
T1 sequence (looked up): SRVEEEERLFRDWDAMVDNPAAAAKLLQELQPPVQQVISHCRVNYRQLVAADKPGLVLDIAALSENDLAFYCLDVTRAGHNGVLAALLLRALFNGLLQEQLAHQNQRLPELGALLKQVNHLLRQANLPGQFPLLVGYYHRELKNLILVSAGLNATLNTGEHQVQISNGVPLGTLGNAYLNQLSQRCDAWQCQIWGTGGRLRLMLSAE

B1: His10-tagged IraD (natural protein, E. coli, UniProt P39375 1-130, looked up)
chain: MMRQSLQAVLPEISGNKTSSLRKSVCSDLLTLFNSPHSALPSLLVSGMPEWQVHNPSDKHLQSWYCRQLRSALLFHEPRIAALQVNLKEAYCHTLAISLEIMLYHDDEPLTFDLVWDNGGWRSATLENVS
notes: IraD, anti-adaptor induced by DNA damage, E. coli; source: E. coli, overexpressed, purified (essentially as Bougdour et al., 2008)
stoichiometry N [1]: 2 | binding result [2]: binds

B2
stoichiometry N [3]: 2

B3: RssBN, N-terminal domain of RssB (residues 1-129), untagged, purified (domain or fragment, E. coli, UniProt P0AEV1 1-129, looked up)
chain: MTQPLVGKQILIVEDEQVFRSLLDSWFSSLGATTVLAADGVDALELLGGFTPDLMICDIAMPRMNGLKLLEHIRNRGDQTPVLVISATENMADIAKALRLGVEDVLLKPVKDLNRLREMVFACLYPSMF
notes: RssB, E. coli, N-terminal domain, residues 1-129; also called N-domain of RssB; receiver domain; source: E. coli, Ub-fusion system, purified (IMAC, SEC)
stoichiometry N [1]: 2

B4: IraP with a C-terminal His10-tag, purified (natural protein, E. coli, UniProt P0AAN9 1-86, looked up)
chain: MKNLIAELLFKLAQKEEESKELCAQVEALEIIVTAMLRNMAQNDQQRLIDQVEGALYEVKPDASIPDDDTELLRDYVKKLLKHPRQ
notes: IraP, anti-adaptor induced by phosphate starvation, E. coli; also called His10-tagged IraP; source: E. coli, overexpressed, purified (essentially as Bougdour et al., 2008); not shown: His10, C-terminal, kept
binding result [4]: binds
